Consider 16 sequences from the nanobody polyreactivity screen of Harvey et al. (2022).

The data set is described as follows: yeast display, Sf9 membrane polyspecificity reagent, FACS + sequencing; frameworks hold sequencing errors. The procedure, abridged:
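Polyreactivity labels are assigned by the sorting gate from which each nanobody was recovered. The gates were low and high (top ~1%), set on anti-HA fluorescence for expression and streptavidin fluorescence for reagent binding. Before sorting, galactose-induced (36–48 hours) yeast display cells were stained for 1 hour at 4 °C with 10% biotinylated, detergent-solubilized Sf9 membrane reagent.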
Turning to “QVQLVESGGGLVQAGGSLRLSCAASGRTFGRYLMGWYRQAPGKERLLVAAISFSGTGTYYADSVKGRFTISRDNAKYTVYLQMNSLKPEDTAVYYCAKGVTRVQYKHYYWGQGTQVTVSS”, the “polyreactivity (PSR sort gate)” value was “high polyreactivity”. In the case of “QVQLVESGGGLVQAGGSLRLSCAASGRTFGRYSMGWYRQAPGKERELVAAISYSTDSTYYADSVKGRFTISRDNAKNTVYLQMNSLKPEDTAVYYCAALGYHRYRNYDYWGQGTQVTVSS” it was “low polyreactivity”. In the case of “QVQLVESGGGLVQAGGSLRLSCAASGRTFGSNAMGWYRQAPGKERELVANIDGGGGTYADSVKGRFTISRDNAKNTVYLQMNSLKPEDTAVYYCATRWSGYDMDYWGQGTQVTVSS”, the “polyreactivity (PSR sort gate)” value is “low polyreactivity”.

With “QVQLVESGGGLVQAGGSLRLSCAASGRTFGSYAMGWYRPAPGKERELVAGISWSGGITYYADSVKGRFTISRDNAKNSVYLQMNSLKPEDTAVYYCAADSVVWEMEYWGQGTQVTVSS”, the “polyreactivity (PSR sort gate)” value is “high polyreactivity”. Next, “QVQLVESGGGLVQAGGSLRLSCAASGRTFGSYAMGWYRQAPGKEREFVAGISYGGGRTYYADSVKGRFTISRDNAKNTVYLQMNSLKPEDTAVYYCAADGVYRYNYPYLYTYDYWGQGTQVTVSS”: “low polyreactivity”.

For “QVQLVESGGGLVQAGGSLRLSCAASGRTFGSYAMGWYRQAPGKERELVAAISRSGTNTYYADSVKGRFTISRDNAKNTVYLQMNSLKPEDTAVYYCATDFYFSSVLVWFSYGYWGQGTQVTVSS”, the “polyreactivity (PSR sort gate)” value is “low polyreactivity”. Next, “QVQLVESGGGLVQAGGSLRLSCAASGRTFGSYTMGWYRQAPGKERELVAAISWSGGRTYYADSVKGRFTISRDNAKNTVYLQMNSLKPEDTAVYYCNADAEVVPGEYDYWGQGTQVTVSS”: “low polyreactivity”; “QVQLVESGGGLVQAGGSLRLSCAASGRTFGTNAMGWYRQAPGKERELVASIDLSADSTYYADSVKGRFTISRDNAKNNFYLQMNSLKPEDTAVYYCNKDGYPWPPNLDYWGQGTQVTVSS”: “low polyreactivity”; “QVQLVESGGGLVQAGGSLRLSCAASGRTFGTNTMGWYRQAPGKEREFVATITSSGGSTYYADSVKGRFTISRDNAKNTVYVQINSLKPEATAVYYCATDPYGGNTLYPSLRYDYWGQGTQVTVSS”: “low polyreactivity”.

Turning to “QVQLVESGGGLVQAGGSLRLSCAASGRTFGTYAMGWYRQAPGKERELVAAITSGTRTYYADSVKGRFTISRDNAKNTVYLQMNSLKPEDTAVYDCAAGLVYRWSSTPRRLYYYWGQGTQVTVSS”, the “polyreactivity (PSR sort gate)” value is given as “high polyreactivity”. For the sequence “QVQLVESGGGLVQAGGSLRLSCAASGRTFGVNAMGWYRQAPGKERELVAAISRSGGSTYYADSVKGRFTISRDNAKNTVYLQMNSLKPEDTAVYYCAKSYFGNHLTGFGYWGQGTQVTVSS”, the “polyreactivity (PSR sort gate)” value is “low polyreactivity”. In the case of “QVQLVESGGGLVQAGGSLRLSCAASGRTFGVYAMGSYRQAPGKEREFVATIRTTGSTNYADSVKGRFTISRDNAKNTVYLQMNSLKTEDTAVYYCAARQRQSKYYPYTTFTYDYWGQGTQVTVSS” it was “high polyreactivity”; in that of “QVQLVESGGGLVQAGGSLRLSCAASGRTFGVYAMGWYRQAPGKERELVAAIRWSGGGTYYADSVKGRFTISRDNAKNTVYLQMISLKPEDTAVYYCAATFQNSPYTRYTDMYYWGQGTQVTVSS”, “low polyreactivity”; in that of “QVQLVESGGGLVQAGGSLRLSCAASGRTFGWNAMGWYRQAPGKERELVAAISLRGTSTYYADSVKGRFTISRDNAKNTVYLQMNSLKPEDTAVYYCAARGRNGVNYWGQGTQVTVSS”, “high polyreactivity”. In the case of “QVQLVESGGGLVQAGGSLRLSCAASGRTFGWYAMGWYRQAPGKERELVAAITSGTSTYYADSVKGRFTISRDNAKNTVYLQMNSLKPEDTAVYYCAAQQGISNGTGVSATNPMDYWGQGTQVTVSS” it was “low polyreactivity”; in that of “QVQLVESGGGLVQAGGSLRLSCAASGRTFGWYAMGWYRQAPGKERELVAAITSGTSTYYADSVKGRFTISRDNAKNTVYLQMYSLKPEDTAVYYCAVDRGISVGYTRFDYWGQGTEVTVSS”, “low polyreactivity”.
